The record followed here is publication PMC9834408, “The SPOC domain is a phosphoserine binding module that bridges transcription machinery with co- and post-transcriptional regulators” (Nature Communications, 2023).

This assay addresses 2×S2P CTD diheptapeptide. As to the kind of experiment: fluorescence polarisation; fluorescence anisotropy; 90 nM labelled peptide (Atto-488 on CTD peptides, FAM on NCoR and FMR1 peptides) titrated with increasing concentrations of SPOC domain; 20 °C; 25 mM Tris-Cl pH 7.4, 25 mM NaCl, 1 mM DTT; three independent dilution series.

B1: DIDO SPOC R1096A (domain or fragment)
chain: TLFLSRLSTIWKGFINMQSVAKFVTKAYPVSGCFDYLSEDLPDTIHIGGAIAPKTVWDYVGKLKSSVSKELCLIRFHPATEEEEVAYISLYSYFSSRGRFGVVANNNRHVKDLYLIPLSAQDPVPSKLLPFEGPGLESPRPNIILGLVICQKIKRPANS
Take B1: the Kd was 22.4 µM.

B2: PHF3 SPOC R1248A (domain or fragment)
chain: STFLARLNFIWKGFINMPSVAKFVTKAYPVSGSPEYLTEDLPDSIQVGGAISPQTVWDYVEKIKASGTKEICVVRFTPVTEEDQISYTLLFAYFSSRKRYGVAANNMKQVKDMYLIPLGATDKIPHPLVPFDGPGLELHRPNLLLGLIIRQKLKRQHS
In turn, B2 yielded a Kd of 8.4 µM.
